The text below walks through data of patent US20220290101A1.

This test deals with L1 (DV1-GV4) soluble heterodimeric γδ TCR antigen, leucine zipper (LZ) format (human). Put plainly: DELFIA affinity ranking with 100 nM biotinylated L1.
Sequence of L1 (DV1-GV4) soluble heterodimeric γδ TCR antigen, leucine zipper (LZ) format (human) (main, as listed by the source): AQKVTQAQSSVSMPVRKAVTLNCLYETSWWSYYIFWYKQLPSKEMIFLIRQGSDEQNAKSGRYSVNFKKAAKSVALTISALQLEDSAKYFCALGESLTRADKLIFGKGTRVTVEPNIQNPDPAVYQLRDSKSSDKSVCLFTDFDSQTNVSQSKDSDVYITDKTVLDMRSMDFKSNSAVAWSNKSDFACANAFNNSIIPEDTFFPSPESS

B1: 1245_P01_E07 (scFv) (scFv)
scFv: QVQLVESGGGLVKPGGSLRLSCAASGFTFSDYYMSWIRQAPGKGLEWVSYISSSGSTIYYADSVKGRFTISRDNAKNSLYLQMNSLRAEDTAVYYCARVDYADAFDIWGQGTLVTVSSGGGGSGGGGSGGGASDIQMTQSPSSLSASVGDRVTIACRAGQSIGTYLNWYQQKPGKAPKLLIYVASSLQSGVPSRFSGSGSGTEFTLTISSLQPEDFATYYCQQSYSTLLTFGRGTKVEIK
The molecule B1 had a 100 nM L1 (DELFIA signal) (fluorescence units) of 163000.

B2: 1245_P01_G09 (scFv) (scFv)
scFv: QVQLQQSGPGLVKPSQTLSLTCAISGDSVSSNSAAWNWIRQSPSRGLEWLGRTYYGSKWYNEYALSVKSRIIINPDTSKNQFSLQLNSVTPEDTAVYYCARDYYYSMDVWGQGTLVTVSSGGGGSGGGGSGGGASDIVMTQSPSTLSASIGDRVTITCRAGQSISTWLAWYQQKPGKAPKLLIYDASSLESGVPLRFSGSGSGTEFTLAISSLQPDDFATYYCQQSYSTPVTFGQGTKVEIK
For B2, the 100 nM L1 (DELFIA signal) (fluorescence units) was 18400.

B3: 1251_P02_G10 (scFv) (scFv)
scFv: EVQLVESGGGLVQPGGSLRLSCAASGFTFSDYYMSWIRQAPGKGLEWVSYISSSGSTIYYADSVKGRFTISRDNAKNSLYLQMNSLRAEDTAVYYCARHSWNDAFDIWGRGTLVTVSSGGGGSGGGGSGGGASDIQMTQSPSSLSASVGDRVTITCRASQSISSHLNWYQQKPGKAPKLLIYAASSLQSGVPSRFSASGSGTDFTLTISSLQPEDFATYYCQQSYSTLLTFGGGTKVEIK
Regarding B3, the 100 nM L1 (DELFIA signal) (fluorescence units) was 17100.

B4: 1141_P01_E01 (scFv) (scFv)
scFv: QVQLVQSGAEVKKPGESLKISCKGSGYSFTSYWIGWVRQMPGKGLEWMGIIYPGDSDTRYSPSFQGQVTISADKSISTAYLQWSSLKASDTAMYYCARHQVDTRTADYWGQGTLVTVSSGGGGSGGGGSGGGASQSALTQPASVSGSPGQSVTISCTGTRSDVGGYNYVSWYQHHPGKAPKLMIYEVSNRPSGVSNRFSGSKSGNTASLTISGLQAEDEADYYCSSYTSTSTLVFGGGTKLTVL
As to B4, the 100 nM L1 (DELFIA signal) (fluorescence units) came to 137000.

B5: 1252_P01_C08 (scFv) (scFv)
scFv: EVQLLESGGGLVQPGRSLRLSCAASGFTVSSNYMSWVRQAPGKGLEWVSVIYSGGSTYYADSVKGRFTISRDNSKNTLYLQMNSLRAEDTAVYYCASPIELGAFDIWGQGTLVTVSSGGGGSGGGGSGGGASSYELTQPPSVSVAPGKTARITCGGNNIGSQSVHWYQQKPGQAPMLVIYYDSDRPSGIPERFSGSNSGNTATLTISRVEAGDEADYYCQVWDSSSDHVVFGGGTKLTVL
B5 had a 100 nM L1 (DELFIA signal) (fluorescence units) of 1980.

B6: 1245_P02_G04 (scFv) (scFv)
scFv: QVQLQQSGPGLVKPSQTLSLTCAISGDSVSSKSAAWNWIRQSPSRGLEWLGRTYYRSKWSTDYAASVKSRITINPDTSKNQLSLQLNSVTPEDTAVYYCARTWSGYVDVWGQGTLVTVSSGGGGSGGGGSGGGASDIQMTQSPPALSASVGDRVTITCRASQDINDWLAWYQHKPGKAPKLLIYDASSLESGVPSRFSGSGSGTEFTLTISSLQPDDFATYYCQQSYSTPQVTFGQGTRLEIK
B6 displayed a 100 nM L1 (DELFIA signal) (fluorescence units) of 5900.

B7: 1251_P02_C05 (scFv) (scFv)
scFv: EVQLLESGGGLVQPGGSLRLSCAASGFTFSSYAMSWVRQAPGKGLEWVSAISGGGGTTYSSDSVKGRFTISRDNSKNTLYLQMNSLRAEDTAVYYCARDSGVAFDIWGQGTLVTVSSGGGGSGGGGSGGGASDIQMTQSPSFLSASVGDRVTITCRASQNIRTWLAWYQQKPGRAPKLLIYDASSLESGVPSRFSGSGSGTDFTLTISSLQPEDFATYYCQQFKRYPPTFGLGTKVEIK
Consider B7, for which the 100 nM L1 (DELFIA signal) (fluorescence units) was 65300.

B8: 1245_P02_F07 (scFv) (scFv)
scFv: QVQLQQSGPGLVKPSQTLSLTCVISGDSVSSNSAAWNWIRQSPSRGLEWLGRTYYRSKWYNDYAVSVKSRITINPDTSKNQFSLQLNSVTPEDTAVYYCARDYYYSMDVWGQGTMVTVSSGGGGSGGGGSGGGASDIQMTQSPSTLSASVGDRVTITCRASQSISSWLAWYQQKPGKAPKLLIYDASSLESGVPLRFSGSGSGTEFTLTISSLQPDDFATYYCQQSHSHPPTFGPGTKVDIK
The molecule B8 displayed a 100 nM L1 (DELFIA signal) (fluorescence units) of 10400.

B9: 1139_P01_E04 (scFv) (scFv)
scFv: QVQLQQSGPGLVKPSQTLSLTCAISGDSVSSNSAAWNWIRQSPSRGLEWLGRTYYRSKWYNDYAVSVRSRITINPDTSKNQFSLQLNSVTPEDTAVYYCARSWNDAFDIWGQGTTVTVSSGGGGSGGGGSGGGASDIVMTQSPSTLSASIGDRVTITCRAGQSISTWLAWYQQKPGKAPKLLIYDASSLESGVPLRFSGSGSGTDFTLTISSLQPEDFATYYCQQSYSTPLTFGGGTKVEIK
Take B9: the 100 nM L1 (DELFIA signal) (fluorescence units) was found to be 23800.
